Target: T1, Tiam1 (human (endogenous in MCF-7), UniProt Q13009 1-1591)
T1 construct: also called Rac1-GEF; source: endogenous, MCF-7 lysate
Test: co-IP; anti-Tiam1 antibody, lysates of nt MCF-7 and of the lines that stably express the SDC4 constructs; Mg2+-lysis buffer (25 mM HEPES pH 7.5, 150 mM NaCl, 1% Igepal CA-630, 5 mM MgCl2, 1 mM EDTA, 2% glycerol); blot with anti-GFP-HRP or anti-Rac1
Settings: partners not purified

T1 sequence (Q13009 whole entry): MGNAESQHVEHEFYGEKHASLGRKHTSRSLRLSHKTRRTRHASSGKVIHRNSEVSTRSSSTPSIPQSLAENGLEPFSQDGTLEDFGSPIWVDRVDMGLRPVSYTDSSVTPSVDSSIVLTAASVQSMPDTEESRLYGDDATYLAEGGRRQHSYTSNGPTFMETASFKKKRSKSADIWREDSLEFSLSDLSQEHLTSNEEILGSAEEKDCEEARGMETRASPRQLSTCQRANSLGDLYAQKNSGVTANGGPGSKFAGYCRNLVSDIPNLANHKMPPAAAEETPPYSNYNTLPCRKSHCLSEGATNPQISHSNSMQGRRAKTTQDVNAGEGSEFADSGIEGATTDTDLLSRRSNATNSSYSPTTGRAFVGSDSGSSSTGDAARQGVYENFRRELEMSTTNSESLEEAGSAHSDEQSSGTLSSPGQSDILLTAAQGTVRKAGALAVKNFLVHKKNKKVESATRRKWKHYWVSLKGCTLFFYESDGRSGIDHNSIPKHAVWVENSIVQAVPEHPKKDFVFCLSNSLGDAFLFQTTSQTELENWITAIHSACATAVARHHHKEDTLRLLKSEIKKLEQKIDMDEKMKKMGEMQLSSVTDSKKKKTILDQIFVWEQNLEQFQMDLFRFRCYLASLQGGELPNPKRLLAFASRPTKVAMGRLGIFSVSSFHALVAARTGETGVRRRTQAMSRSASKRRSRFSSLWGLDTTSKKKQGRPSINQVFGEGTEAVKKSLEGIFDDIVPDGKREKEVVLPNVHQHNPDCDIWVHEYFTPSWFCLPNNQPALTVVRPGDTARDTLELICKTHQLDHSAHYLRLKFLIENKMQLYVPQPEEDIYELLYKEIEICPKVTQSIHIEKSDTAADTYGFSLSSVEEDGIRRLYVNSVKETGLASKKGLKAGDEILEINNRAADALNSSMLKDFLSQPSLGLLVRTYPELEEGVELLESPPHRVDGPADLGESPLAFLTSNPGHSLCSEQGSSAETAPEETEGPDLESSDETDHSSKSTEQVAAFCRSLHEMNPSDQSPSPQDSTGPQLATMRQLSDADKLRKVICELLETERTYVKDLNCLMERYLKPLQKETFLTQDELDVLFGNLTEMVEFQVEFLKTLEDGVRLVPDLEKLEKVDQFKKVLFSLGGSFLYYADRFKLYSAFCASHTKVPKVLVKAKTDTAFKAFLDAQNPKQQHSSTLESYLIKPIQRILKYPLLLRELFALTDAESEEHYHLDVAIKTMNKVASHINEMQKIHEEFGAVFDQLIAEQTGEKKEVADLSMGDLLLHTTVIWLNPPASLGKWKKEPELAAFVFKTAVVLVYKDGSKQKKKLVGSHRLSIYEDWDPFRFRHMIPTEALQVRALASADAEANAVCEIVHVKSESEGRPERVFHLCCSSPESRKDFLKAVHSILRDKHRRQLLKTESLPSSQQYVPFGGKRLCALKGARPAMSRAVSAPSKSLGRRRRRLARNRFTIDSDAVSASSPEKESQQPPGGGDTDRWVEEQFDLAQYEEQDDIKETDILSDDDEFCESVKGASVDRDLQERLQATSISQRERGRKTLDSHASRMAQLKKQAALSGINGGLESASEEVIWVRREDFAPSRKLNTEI

B1: Ser179Glu SDC4 (phosphomimetic), with GFP in the extracellular domain (natural protein, human, UniProt P31431 19-198, looked up)
chain: ESIRETEVIDPQDLLEGRYFSGALPDDEDVVGPGQESDDFELSGSGDLDDLEDSMIGPEVVHPLVPLDNHIPERAGSGSQVPTEPKKLEENEVIPKRISPVEESEDVSNKVSMSSTVQGSNIFERTEVLAALIVGGIVGILFAVFLILLLMYRMKKKDEGEYDLGKKPIYKKAPTNEFYA
notes: syndecan-4 (SDC4), human, GenBank CAG46871.1; GFP inserted into the extracellular domain at position 131; also called phosphomimetic SDC4; source: MCF-7, stably transfected, in lysate; not shown: GFP, internal (at position 131), kept
fold binding against the non-phosphorylated SDC4: ~10 fold
